Patent publication US20060026702A1, “Phosphoinositide 3-kinase mediated inhibition of GPCRs” (DUKE UNIVERSITY, priority 2002, published 2006)

Tests used:
βARK1/PI3K interaction = biological target: T1, βARK1/PI3K interaction (Bos taurus, UniProt P21146); experiment: βARK1 associated PI3K activity in HEK 293 cells co-transfected with HEAT or PI3KΔHEAT; type: cell-based
T1 construct: recognizes both full length βARK1 and the βARKct; expressed in transfected cells; host or cells: HEK 293
T1 sequence (P21146 1-689): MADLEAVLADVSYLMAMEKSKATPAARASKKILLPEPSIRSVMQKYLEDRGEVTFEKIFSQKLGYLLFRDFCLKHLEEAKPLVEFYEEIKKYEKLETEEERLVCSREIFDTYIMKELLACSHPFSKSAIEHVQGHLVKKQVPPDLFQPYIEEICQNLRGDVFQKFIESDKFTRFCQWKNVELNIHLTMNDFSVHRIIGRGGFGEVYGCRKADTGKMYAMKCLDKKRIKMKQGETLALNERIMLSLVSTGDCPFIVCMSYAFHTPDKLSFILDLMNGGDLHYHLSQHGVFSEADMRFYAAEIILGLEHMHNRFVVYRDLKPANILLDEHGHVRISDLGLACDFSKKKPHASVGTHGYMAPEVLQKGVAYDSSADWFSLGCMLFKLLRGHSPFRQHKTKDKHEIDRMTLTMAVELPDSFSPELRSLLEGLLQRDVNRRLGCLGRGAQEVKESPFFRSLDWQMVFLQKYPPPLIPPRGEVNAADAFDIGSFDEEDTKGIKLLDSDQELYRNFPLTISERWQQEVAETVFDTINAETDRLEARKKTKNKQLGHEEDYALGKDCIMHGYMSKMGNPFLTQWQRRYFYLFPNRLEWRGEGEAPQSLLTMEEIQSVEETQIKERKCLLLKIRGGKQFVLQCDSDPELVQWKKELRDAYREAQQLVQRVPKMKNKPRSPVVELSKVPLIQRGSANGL
Procedure: The present inventors determined that overexpression of the 197 amino acid HEAT domain of PI3K competed for endogenous PI3K binding to βARK1 in living cells. HEK 293 cells were co-transfected with plasmids containing the βARK1 cDNA (2 μg) and increasing concentrations of the HEAT domain cDNA (ranging from 0 to 6 μg). […] The maximal reduction of βARK1 associated PI3K activity occurred when cells were co-transfected with 4 μg of HEAT cDNA (FIG. 9B). Summary results of n=5 experiments. *, p<0.0005. The data was normalized to βARK1 associated PI3K activity in cells transfected with βARK1 only. Furthermore, FLAG tagged HEAT protein co-immunoprecipitated with βARK1 monoclonal antibodies in the co-transfected HEK 293 cells.
The absence of the HEAT domain in an otherwise intact PI3K molecule affected the association of βARK1 with endogenous PI3K in cells. HEK 293 cells were co-transfected with plasmids containing cDNAs for βARK1 (2 μg), βARK1 plus HEAT (4 μg), and βARK1 plus PI3KΔHEAT (4 μg). Cell lysates were immunoprecipitated with a βARK1 monoclonal antibody and assayed for the associated PI3K activity. Expression of PI3KΔHEAT had no effect on the endogenous βARK1/PI3K interaction, whereas overexpression of HEAT abolished this interaction (FIGS. 9C and 9D). […] The data was normalized to βARK1 associated PI3K activity in cells transfected with βARK1 only.
Cytosolic and membrane fractions were prepared and analyzed for βARK1 associated PI3K activity. […] Membrane fractions were prepared from the HEK293 cells co-transfected with the βARK1 (2 μg), βARK1 and HEAT domain (4 μg) containing plasmids.

βARK1 = biological target: T2, βARK1 (Bos taurus, UniProt P21146); experiment: Co-immunoprecipitation and GST pull-down with purified βARK1; type: binding; conditions: immunoprecipitated FLAG-HEAT or PI3KΔHEAT-HA
T2 construct: gift from Dr. Robert Lefkowitz
T2 sequence (P21146 1-689): T1 sequence (P21146 1-689)
Procedure: GST Fusion Protein Expression and Pull-down Experiments—Plasmid DNAs were transformed in Escherichia coli BL21 cells. Overnight cultures were grown in LB medium supplemented with ampicillin (100 μg/ml), diluted to an A600 of 0.2 in the same medium and grown for another 1 hr at 37° C. Cultured cells were then induced with 0.1 mM isopropyl-1-thio-β-D-galactopyranoside for 2 hr. Cell were then pelleted, washed once with 1× phosphate-buffered saline and resuspended in 1× phosphate-buffered saline containing 1 mM phenylmethylsulfonyl fluoride, 2 mg/ml lysozyme and incubated for 15 min on ice. Cells were lysed by adding Triton X-100 1%. Solublized cells were incubated with DNase (300 units) for 15 min on ice and centrifuged at 13,000 rpm for 10 min.
Glutathione-Sepharose beads were added to the supernatant and gently agitated at 4° C. for 2 hr. Beads were washed three times with ice cold 1×PBS containing 1% Triton X-100 followed by three washes with cold PBS without detergent. Protein concentration was determined using a DC protein assay kit (Bio Rad), and the integrity of the fusion protein was analyzed by SDS-polyacrylamide gel electrophoresis and Coomassie staining.
The beads were spun and washed three times with binding buffer followed by three washes with binding buffer without detergent. The beads were resuspended in SDS gel loading buffer and resolved by gel electrophoresis, immunblotting and detection was carried out described later.
FLAG-HEAT and PI3KΔHEAT proteins were immunoprecipitated from cell extracts using monoclonal FLAG and HA antibodies respectively, fractionated by SDS-PAGE and analyzed by immunoblotting with βARK1 monoclonal antibody. […] Levels of expression of HEAT and PI3KΔHEAT proteins were similar (FIG. 8B, lower panel).
To investigate whether there was a direct physical interaction between the HEAT domain of PI3K and βARK1, GST-HEAT fusion protein containing 535-732 amino acid residues of PI3Kγ was produced, which including the entire HEAT domain and flanking upstream 10 amino acids and downstream 7 amino acids. […]

PI3K = experiment: βAR associated and endogenous PI3K activity (lipid kinase assay) in HEK-293 cells; conditions: HEAT (4 μg cDNA) co-transfected; 10 μM isoproterenol
Procedure: Lipid Kinase Assays—Cells were lysed in lysis buffer and 2 mg cytosolic extract was used for immunoprecipitation with either the C5/1 monoclonal antibody directed against βARK1, the anti-FLAG M2 monoclonal antibody (Sigma) or antibodies to p110γ, or p110β (Santa Cruz Biotechnology) and protein G-agarose. Sedimented beads were then washed once with 1 ml of lysis buffer, thrice with 1 ml of phosphate-buffered saline (1× phosphate-buffered saline, 1% NP-40 and 100 μM sodium orthovanadate), thrice with 1 ml of Tris/LiCl (100 mM Tris-HCl (pH 7.4), 5 mM LiCl and 100 μM sodium orthovanadate) and twice with TNE (10 mM Tris Cl (pH 7.4), 150 mM NaCl, 5 mM EDTA and 100 μM sodium orthovanadate). […] Autoradiography of dried plates was used to detect signals, and PIP was quantified by phosphorimaging. […] Values are expressed as fold increase/decrease relative to wild-type/control.
They used HEK-293 cells transfected with either FLAG epitope tagged β1AR or β2AR plasmids and monitored the association of PI3K to the receptor after agonist stimulation. […] The FLAG epitope was immunoprecipitated from 500 ug of protein from the cytosolic extracts and PI3K activity measured.
HEK-293 cells were transfected with FLAG β1AR (upper panel) and FLAG β2AR (lower panel). […] Cell extracts were used to immunoprecipitate β1AR and β2AR using the anti-FLAG antibody and PI3K activity was measured in the immunoprecipitates.

B1: HEAT: 197 amino acid HEAT domain of PI3Kγ, FLAG epitope-tagged (SEQ ID NO: 2), overexpressed in cells (protein, listed as Homo sapiens)
chain: MDYKDDDDKHPIALPKHQPTPDDRVRAEMPNQLRKQLEAIIATDTAEDKELLWHFRYESLKHPKAYPKLFSSVKWGQQEIVAKTYQLLARREVWDQSALDVGLTMQLLDCNFSDENVRAIAVQKLESLEDDDVLHYLLQLVQAVKFEPYHDSALARFLLKRGLRNKRIGHFLFWFLRSEIAQSRHYQQRFAVILEAYLRGCGTA
modifications: FLAG tag
With B1 the “endogenous βARK1/PI3K interaction” value (βARK1/PI3K interaction; 4 μg cDNA co-transfected with βARK1) was “abolished”, the “agonist-induced translocation of PI3K to the membrane” value (βARK1/PI3K interaction; 10 μM isoproterenol 2 min, HEAT 4 μg) was “effectively abolished” and the “βARK1 associated PI3K activity with increasing HEAT cDNA” value (βARK1/PI3K interaction; HEAT cDNA 0 to 6 μg) was “effectively competed away”. The “association with purified βARK1 (immune complexes from HEK 293 extracts)” value (βARK1) was “found to associate” and the “FLAG-β2AR associated PI3K activity” value (PI3K) was “marked decrease”.
